# Reference: patent publication US20240050432A1 (Infinity Pharmaceuticals, Inc., priority 2020, published 2024)
# What was measured:
# [1] = system: advanced urothelial carcinoma; assay: Phase 2 randomized study of eganelisib + nivolumab vs nivolumab: response, PFS, OS; format: in vivo, human; conditions: for Median PFS: preliminary PFS
# Source text: (§1) Methods: Eligible patients (pts) with mUC who progressed on >1 platinum-based chemotherapy regimen and were CPI naïve were enrolled. […] Pts were stratified by baseline circulating monocytic myeloid derived suppressor cells (mMDSC) level. The primary endpoint was objective response rate (ORR) per RECIST v1.1 in pts with high baseline mMDSC levels. Other endpoints included ORR, progression free survival (PFS) and overall survival (OS) in all pts, PD-L1+/−pts and pts with hepatic adverse events (AE).
# Advanced platinum refractory 2nd line urothelial cancer patients: Inclusion/exclusion criteria per CheckMate-275; MDSC* all corners (stratified); PD-L1** status all corners (non-stratified). • * Circulating mMDSC levels measured in baseline peripheral blood samples based on a Clinical Laboratory Improvement Amendments (CLIA)-certified flow cytometry assay (low [<22.3%] or high [≥22.3%] or ≥/<the median MDSC level of patients in this trial) • ** PD-L1 expression measured in baseline/archival tumor biopsies with Dako PD-L1 immunohistochemical 28-8 pharmDx kit approved for nivolumab in UC, except 2 biopsies tested with 22C3 PD-L1 antibody prior to study (Tumor Proportion Score≥1% cutoff for PD-L1 (+)) • Primary objective: ORR in MDSC High • Secondary objectives: ORR, TTR, DOR, and PFS in total population+MDSC subsets; safety; PK • Exploratory objectives: safety and efficacy in biomarker subsets, including PD-L1; OS
# (§2) The dose for nivolumab is 480 mg Q4W.
# [2] = Phase 2 urothelial carcinoma study: adverse events; format: in vivo, human
# Source text: as §1, §2
# [3] = preliminary analysis, N=33 vs N=16
# [4] = preliminary analysis, N=33 vs N=16, 1 Grade 4
# [5] = snapshot Jun. 26, 2021, N=33 vs N=16
substance,measurement,setting,value
"Nivolumab + Placebo: placebo with nivolumab (PN), active control arm",patients with reduction of tumor burden,"[1]; PD-L1(−) patients, best change of target lesion",17%
same,Median PFS,[1]; ITT,8.5 wks
same,Median PFS,[1]; PD-L1(+),16.4 wks
same,Median PFS,[1]; PD-L1(−),7.9 wks
same,patients for whom durability of OS benefit continued to mature,"[1]; snapshot Jun. 26, 2021",18%
same,median OS (mOS),"[1]; snapshot Jun. 26, 2021, PD-L1 negative patients",7.9 months
same,median OS (mOS),"[1]; snapshot Jun. 26, 2021, all patients",7.9 months
same,"asthenia, all-Gr AE","[2]; first 49 pts (33 EN, 16 PN)",31%
same,"hepatotoxicity, Gr≥3 AE","[2]; first 49 pts (33 EN, 16 PN)",0%
same,"pruritis, all-Gr AE","[2]; first 49 pts (33 EN, 16 PN)",6%
same,"pyrexia, all-Gr AE","[2]; first 49 pts (33 EN, 16 PN)",0%
same,"rash, Gr≥3 AE","[2]; first 49 pts (33 EN, 16 PN)",0%
same,"rash, all-Gr AE","[2]; first 49 pts (33 EN, 16 PN)",6%
same,"transaminase elevation, Gr≥3 AE","[2]; first 49 pts (33 EN, 16 PN)",6%
same,"transaminase elevation, all-Gr AE","[2]; first 49 pts (33 EN, 16 PN)",6%
same,"Aspartate aminotransferase increased, Grade≥3 TEAE, Related to Eganelisib (Placebo in control arm)",[2]; [3],0 n (%)
same,"Aspartate aminotransferase increased, Grade≥3 TEAE, Related to Nivolumab",[2]; [3],0 n (%)
same,"Asthenia, TEAE, All Causality",[2]; [3],4 (25.0) n (%)
same,"Asthenia, TEAE, Related to Eganelisib (Placebo in control arm)",[2]; [3],2 (12.5) n (%)
same,"Asthenia, TEAE, Related to Nivolumab",[2]; [3],1 (6.3) n (%)
same,"Decreased appetite, TEAE, All Causality",[2]; [3],4 (25.0) n (%)
same,"Decreased appetite, TEAE, Related to Eganelisib (Placebo in control arm)",[2]; [3],1 (6.3) n (%)
same,"Decreased appetite, TEAE, Related to Nivolumab",[2]; [3],0 n (%)
same,"Disease progression, Grade≥3 TEAE, All Causality",[2]; [3],6 (37.5) n (%)
same,"Disease progression, Grade≥3 TEAE, Related to Eganelisib (Placebo in control arm)",[2]; [3],0 n (%)
same,"Disease progression, Grade≥3 TEAE, Related to Nivolumab",[2]; [3],0 n (%)
same,"Disease progression, TEAE, All Causality",[2]; [3],6 (37.5) n (%)
same,"Disease progression, TEAE, Related to Eganelisib (Placebo in control arm)",[2]; [3],0 n (%)
same,"Disease progression, TEAE, Related to Nivolumab",[2]; [3],0 n (%)
same,"Hepatotoxicity, Grade≥3 TEAE, Related to Eganelisib (Placebo in control arm)",[2]; [3],0 n (%)
same,"Hepatotoxicity, Grade≥3 TEAE, Related to Nivolumab",[2]; [3],0 n (%)
same,"Pruritus, TEAE, All Causality",[2]; [3],1 (6.3) n (%)
same,"Pruritus, TEAE, Related to Eganelisib (Placebo in control arm)",[2]; [3],0 n (%)
same,"Pruritus, TEAE, Related to Nivolumab",[2]; [3],0 n (%)
same,"Pyrexia, TEAE, All Causality",[2]; [3],0 n (%)
same,"Pyrexia, TEAE, Related to Eganelisib (Placebo in control arm)",[2]; [3],0 n (%)
same,"Pyrexia, TEAE, Related to Nivolumab",[2]; [3],0 n (%)
same,"Rash, TEAE, All Causality",[2]; [3],1 (6.3) n (%)
same,"Rash, TEAE, Related to Eganelisib (Placebo in control arm)",[2]; [3],0 n (%)
same,"Rash, TEAE, Related to Nivolumab",[2]; [3],0 n (%)
same,"Aspartate aminotransferase increased, Grade≥3 TEAE, All Causality",[2]; [4],1 (6.3) n (%)
same,"Hepatotoxicity, Grade≥3 TEAE, All Causality",[2]; [4],0 n (%)
same,"Anemia, Grade≥3 TEAE, All Causality",[2]; [5],1 (6.3) n (%)
same,"Anemia, Grade≥3 TEAE, Related to Eganelisib (Placebo in control arm)",[2]; [5],0 n (%)
same,"Anemia, Grade≥3 TEAE, Related to Nivolumab",[2]; [5],0 n (%)
same,"Aspartate aminotransferase increased, Grade≥3 TEAE, All Causality",[2]; [5],1 (6.3) n (%)
same,"Aspartate aminotransferase increased, Grade≥3 TEAE, Related to Eganelisib (Placebo in control arm)",[2]; [5],1 (6.3) n (%)
same,"Aspartate aminotransferase increased, Grade≥3 TEAE, Related to Nivolumab",[2]; [5],1 (6.3) n (%)
same,"Asthenia, TEAE, All Causality",[2]; [5],5 (31.3) n (%)
same,"Asthenia, TEAE, Related to Eganelisib (Placebo in control arm)",[2]; [5],2 (12.5) n (%)
same,"Asthenia, TEAE, Related to Nivolumab",[2]; [5],1 (6.3) n (%)
same,"Decreased appetite, TEAE, All Causality",[2]; [5],5 (31.3) n (%)
same,"Decreased appetite, TEAE, Related to Eganelisib (Placebo in control arm)",[2]; [5],1 (6.3) n (%)
same,"Decreased appetite, TEAE, Related to Nivolumab",[2]; [5],0 n (%)
same,"Disease progression, Grade≥3 TEAE, All Causality",[2]; [5],4 (25.0) n (%)
same,"Disease progression, Grade≥3 TEAE, Related to Eganelisib (Placebo in control arm)",[2]; [5],0 n (%)
same,"Disease progression, Grade≥3 TEAE, Related to Nivolumab",[2]; [5],0 n (%)
same,"Disease progression, TEAE, All Causality",[2]; [5],4 (25.0) n (%)
same,"Disease progression, TEAE, Related to Eganelisib (Placebo in control arm)",[2]; [5],0 n (%)
same,"Disease progression, TEAE, Related to Nivolumab",[2]; [5],0 n (%)
same,"Hepatotoxicity, Grade≥3 TEAE, All Causality",[2]; [5],0 n (%)
same,"Hepatotoxicity, Grade≥3 TEAE, Related to Eganelisib (Placebo in control arm)",[2]; [5],0 n (%)
same,"Hepatotoxicity, Grade≥3 TEAE, Related to Nivolumab",[2]; [5],0 n (%)
same,"Pruritus, TEAE, All Causality",[2]; [5],1 (6.3) n (%)
same,"Pruritus, TEAE, Related to Eganelisib (Placebo in control arm)",[2]; [5],0 n (%)
same,"Pruritus, TEAE, Related to Nivolumab",[2]; [5],0 n (%)
same,"Pyrexia, TEAE, All Causality",[2]; [5],0 n (%)
same,"Pyrexia, TEAE, Related to Eganelisib (Placebo in control arm)",[2]; [5],0 n (%)
same,"Pyrexia, TEAE, Related to Nivolumab",[2]; [5],0 n (%)
same,"Rash, TEAE, All Causality",[2]; [5],1 (6.3) n (%)
same,"Rash, TEAE, Related to Eganelisib (Placebo in control arm)",[2]; [5],0 n (%)
same,"Rash, TEAE, Related to Nivolumab",[2]; [5],0 n (%)
same,"Discontinued treatment: Adverse event, unrelated to treatment","[2]; snapshot Jun. 26, 2021, of discontinued patients",0 n
